Results as given in PMC10267580.

B1: Rab6B^Q72L, GTPase domain (residues 8-176), constitutively active mutant [mouse] / ELKS1_RBD, Rab-binding domain of ELKS1 (residues 849-922) [rat] (parent)
chain 1: RKHLEEVLEMKQEALLAAISEKDANIALLELSSSKKKTQEEVAALKREKDRLVQQLKQQTQNRMKLMADNYEDD
chain 2: GNPLRKFKLVFLGEQSVGKTSLITRFMYDSFDNTYQATIGIDFLSKTMYLEDRTVRLQLWDTAGLERFRSLIPSYIRDSTVAVVVYDITNLNSFQQTSKWIDDVRTERGSDVIIMLVGNKTDLADKRQITIEEGEQRAKELSVMFIETSAKTGYNVKQLFRRVASALPG

Variants of: B1
Test: ITC
Conditions: with ELKS1_RBD

Variant | Kd [µM]
chain 2 L4E | > 50

Same assay, conditions: with Rab6B^Q72L

Variant | Kd [µM]
chain 1 S20A | 26
